Key:
[1] = biological target: AsCas12f1 (Acidibacillus sulfuroxidans Cas12f1) (Acidibacillus sulfuroxidans); test: mass photometry; ternary complex with gRNA and dsDNA target; 200 nM Cas12f1 RNP and 25 nM DNA in binding buffer (40 mM Tris-HAc pH 8.4, 5 mM Mg acetate), 30 min at 45 °C, then diluted 1:10
[2] = biological target: AsCas12f1 (Acidibacillus sulfuroxidans Cas12f1) (Acidibacillus sulfuroxidans); test: mass photometry; binary complex with gRNA; 1 µM Cas12f1 protein and 500 nM gRNA in complex assembly buffer (10 mM Tris-HCl pH 7.5, 100 mM NaCl, 1 mM EDTA, 1 mM DTT), 30 min at 37 °C, then diluted 1:10
dSpCas12f1 [3] = biological target: T1, dSpCas12f1 (Syntrophomonas palmitatica, UniProt P0DW62 1-497, D228A); test: mass photometry; ternary 2:1:1, 5 mM Mg2+, incubated at 45 C; EMSA: 40 mM Tris, 20 mM acetic acid pH 8.4, 1 mM EDTA, 0.1 mg/ml BSA, 10% glycerol, 5 mM Mg acetate, 1 nM DNA, 0-250 nM RNP, 30 min at room temperature or as indicated. Mass photometry: binary in 10 mM Tris-HCl pH 7.5, 100 mM NaCl, 1 mM EDTA, 1 mM DTT, 37 C; ternary in 40 mM Tris-acetate pH 8.4, 5 mM Mg acetate, 45 C; settings: protein: recombinant; tags: 10xHis-MBP-TEV tag removed; chain copies: 2; label: 32P 5'-end in EMSA; guide RNA + DNA duplex
T1 sequence: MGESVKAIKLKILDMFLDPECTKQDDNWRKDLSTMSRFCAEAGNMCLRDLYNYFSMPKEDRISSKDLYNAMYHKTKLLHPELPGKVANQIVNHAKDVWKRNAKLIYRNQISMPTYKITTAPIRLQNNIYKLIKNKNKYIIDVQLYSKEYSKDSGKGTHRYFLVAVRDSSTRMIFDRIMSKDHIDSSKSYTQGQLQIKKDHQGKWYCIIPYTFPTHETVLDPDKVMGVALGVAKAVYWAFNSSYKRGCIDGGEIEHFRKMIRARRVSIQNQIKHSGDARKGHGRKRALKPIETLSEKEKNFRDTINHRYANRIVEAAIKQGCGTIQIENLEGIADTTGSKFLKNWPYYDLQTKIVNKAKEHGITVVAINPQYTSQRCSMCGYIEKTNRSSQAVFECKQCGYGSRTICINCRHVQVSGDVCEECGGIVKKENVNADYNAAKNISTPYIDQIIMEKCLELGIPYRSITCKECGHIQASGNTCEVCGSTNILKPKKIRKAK

dAsCas12f1 [4] = biological target: T2, dAsCas12f1 (Acidibacillus sulfuroxidans, UniProt A0A2U3D0N8 1-422, D225A); test: EMSA; 5 mM Mg2+, room temperature; EMSA: 40 mM Tris, 20 mM acetic acid pH 8.4, 1 mM EDTA, 0.1 mg/ml BSA, 10% glycerol, 5 mM Mg acetate, 1 nM DNA, 0-250 nM RNP, 30 min at room temperature or as indicated. Mass photometry: binary in 10 mM Tris-HCl pH 7.5, 100 mM NaCl, 1 mM EDTA, 1 mM DTT, 37 C; ternary in 40 mM Tris-acetate pH 8.4, 5 mM Mg acetate, 45 C; settings: protein: recombinant; tags: 10xHis-MBP-TEV tag removed; chain copies: 2; label: 32P 5'-end; guide RNA + ssDNA
T2 sequence: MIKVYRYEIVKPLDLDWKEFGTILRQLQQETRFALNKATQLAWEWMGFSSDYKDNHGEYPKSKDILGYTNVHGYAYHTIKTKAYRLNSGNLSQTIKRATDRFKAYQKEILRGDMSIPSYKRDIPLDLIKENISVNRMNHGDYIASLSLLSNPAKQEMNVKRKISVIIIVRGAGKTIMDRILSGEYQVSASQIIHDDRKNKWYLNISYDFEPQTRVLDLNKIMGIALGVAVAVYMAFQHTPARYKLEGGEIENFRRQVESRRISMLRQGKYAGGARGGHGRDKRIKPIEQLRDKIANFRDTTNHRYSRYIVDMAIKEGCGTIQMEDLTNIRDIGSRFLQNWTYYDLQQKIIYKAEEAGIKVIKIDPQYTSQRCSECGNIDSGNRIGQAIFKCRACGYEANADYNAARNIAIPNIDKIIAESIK

dAsCas12f1 [5] = biological target: T2, dAsCas12f1; test: mass photometry; ternary 2:1:1, 5 mM Mg2+, incubated at 45 C; EMSA: 40 mM Tris, 20 mM acetic acid pH 8.4, 1 mM EDTA, 0.1 mg/ml BSA, 10% glycerol, 5 mM Mg acetate, 1 nM DNA, 0-250 nM RNP, 30 min at room temperature or as indicated. Mass photometry: binary in 10 mM Tris-HCl pH 7.5, 100 mM NaCl, 1 mM EDTA, 1 mM DTT, 37 C; ternary in 40 mM Tris-acetate pH 8.4, 5 mM Mg acetate, 45 C; settings: protein: recombinant; tags: 10xHis-MBP-TEV tag removed; chain copies: 2; label: 32P 5'-end in EMSA; guide RNA + DNA duplex
dSpCas12f1 [6] = biological target: T1, dSpCas12f1; test: EMSA; 5 mM Mg2+, room temperature; EMSA: 40 mM Tris, 20 mM acetic acid pH 8.4, 1 mM EDTA, 0.1 mg/ml BSA, 10% glycerol, 5 mM Mg acetate, 1 nM DNA, 0-250 nM RNP, 30 min at room temperature or as indicated. Mass photometry: binary in 10 mM Tris-HCl pH 7.5, 100 mM NaCl, 1 mM EDTA, 1 mM DTT, 37 C; ternary in 40 mM Tris-acetate pH 8.4, 5 mM Mg acetate, 45 C; settings: protein: recombinant; tags: 10xHis-MBP-TEV tag removed; chain copies: 2; label: 32P 5'-end; guide RNA + ssDNA
[7] = biological target: the molecule itself; test: mass photometry; binary complex with gRNA; 1 µM Cas12f1 protein and 500 nM gRNA in complex assembly buffer (10 mM Tris-HCl pH 7.5, 100 mM NaCl, 1 mM EDTA, 1 mM DTT), 30 min at 37 °C, then diluted 1:10
dSpCas12f1 [8] = biological target: T1, dSpCas12f1; test: mass photometry; binary complex 179 kDa, 2:1 protein:gRNA; EMSA: 40 mM Tris, 20 mM acetic acid pH 8.4, 1 mM EDTA, 0.1 mg/ml BSA, 10% glycerol, 5 mM Mg acetate, 1 nM DNA, 0-250 nM RNP, 30 min at room temperature or as indicated. Mass photometry: binary in 10 mM Tris-HCl pH 7.5, 100 mM NaCl, 1 mM EDTA, 1 mM DTT, 37 C; ternary in 40 mM Tris-acetate pH 8.4, 5 mM Mg acetate, 45 C; settings: protein: recombinant; tags: 10xHis-MBP-TEV tag removed; chain copies: 2; single chain, folded

For “AsCas12f1 (Acidibacillus sulfuroxidans Cas12f1) (from UniProt A0A2U3D0N8 1-422) (enzyme)”, the stoichiometry N [1] was 2 and the stoichiometry N [2] was 2.

B1: Sp sgRNA (18 nt spacer) + dsDNA target with PAM (mixed)
DNA 1: GCACCTTACTGCAAGGTAGCCACGTTCAGTTGACCCAACGTCGCCGGCGTGCACAATCTAGATGCATCAGCTGC
DNA 2: GCAGCTGATGCATCTAGATTGTGCACGCCGGCGACGTTGGGTCAACTGAACGTGGCTACCTTGCAGTAAGGTGC
B1: binds (dSpCas12f1 [3]).

B2: As sgRNA + ssDNA target strand (mixed)
DNA: GCAGCTGATGCATCTAGATTGTGCACGCCGGCGACGTTGGGTCAACTTAAATACGCTACCTTGCAGTAAGGTGC
B2: binds (dAsCas12f1 [4]).

B3: As sgRNA + dsDNA target with PAM (mixed)
DNA 1: GCACCTTACTGCAAGGTAGCGTATTTAAGTTGACCCAACGTCGCCGGCGTGCACAATCTAGATGCATCAGCTGC
DNA 2: GCAGCTGATGCATCTAGATTGTGCACGCCGGCGACGTTGGGTCAACTTAAATACGCTACCTTGCAGTAAGGTGC
B3: binds (dAsCas12f1 [5]).

B4: Sp sgRNA (18 nt spacer) + ssDNA target strand (mixed)
DNA: GCAGCTGATGCATCTAGATTGTGCACGCCGGCGACGTTGGGTCAACTGAACGTGGCTACCTTGCAGTAAGGTGC
B4: binds (dSpCas12f1 [6]).

B5: Nuclease inactivated or dead (d) SpCas12f1 (D228A) (enzyme, Syntrophomonas palmitatica, UniProt P0DW62 1-497, looked up)
chain: MGESVKAIKLKILDMFLDPECTKQDDNWRKDLSTMSRFCAEAGNMCLRDLYNYFSMPKEDRISSKDLYNAMYHKTKLLHPELPGKVANQIVNHAKDVWKRNAKLIYRNQISMPTYKITTAPIRLQNNIYKLIKNKNKYIIDVQLYSKEYSKDSGKGTHRYFLVAVRDSSTRMIFDRIMSKDHIDSSKSYTQGQLQIKKDHQGKWYCIIPYTFPTHETVLDPDKVMGVALGVAKAVYWAFNSSYKRGCIDGGEIEHFRKMIRARRVSIQNQIKHSGDARKGHGRKRALKPIETLSEKEKNFRDTINHRYANRIVEAAIKQGCGTIQIENLEGIADTTGSKFLKNWPYYDLQTKIVNKAKEHGITVVAINPQYTSQRCSMCGYIEKTNRSSQAVFECKQCGYGSRTICINCRHVQVSGDVCEECGGIVKKENVNADYNAAKNISTPYIDQIIMEKCLELGIPYRSITCKECGHIQASGNTCEVCGSTNILKPKKIRKAK
notes: SpCas12f1, type V-F CRISPR-Cas nuclease of Syntrophomonas palmitatica, 497 aa, with D228A in the RuvC active site; The tag was removed at a TEV site (ENLYFQS), so a residue of the site may remain at the N-terminus; also called dCas12f1; source: E. coli Arctic Express (DE3), purified (Ni2+ HiTrap chelating, heparin, TEV cleavage, heparin); not shown: 10xHis, N-terminal, cleaved; MBP, N-terminal, …
B5 was tested, and the “stoichiometry N” value [7] was 2.

B6: SpCas12f1 sgRNA T1, 18 nt spacer (structured_RNA)
RNA: GGGAUUUACUCUGUUUCGCGCGCCAGGGCAGUUAGGUGCCCUAAAAGAGCGAAGUGGCCGAAAGGAAAGGCUAACGCUUCUCUAACGCUACGGCGACCUUGGCGAAAUGCCAUCAAUACCACGCGGCCCGAAAGGGUUCGCGCGAAACUGAGUAAUGAAAGUCGCAUCUUGCGUAAGCGCGUGGAUUGAAACAGUUGACCCAACGUCGCC
B6: binds (dSpCas12f1 [8]).

Reference: PMC8548392, “Miniature type V-F CRISPR-Cas nucleases enable targeted DNA modification in cells” (Nature Communications, 2021)
